# Measured values reported in the RNAGym collection of RNA variant scans (doi:10.1073/pnas.2313332121).
# B1: TPR t1 (parent)
# chain: GACCAAUCUGCCCUCAGAGCUCGAGAACAUCUUCGGAUGCAGAGGAGGCAGGCUUCGGUGGCGCGAUAGCGCCAACGUCCUCAACCUCCAAUGCAUCCCACCACAUGAUGAUGCCUGAAGAGCCUUGGUUUUUUG
# Variants of: B1
# Test: polymerase ribozyme fitness, log enrichment relative to wild type (log ratio); higher = more active; in vitro selection for triplet polymerase activity
# Summary of the method: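 Frozen incubation at −7 °C formed the core of a single, triplicate in vitro selection round applied to PCR-built, transcribed mutant libraries of each subunit of a heterodimeric triplet polymerase ribozyme. Extended constructs were gel-excised, captured with streptavidin beads and amplified by RT-PCR, and input and output libraries were Illumina-sequenced with a filter of ≥10 input reads and ≥1 read per output. Fitness is the logarithm of genotype enrichment relative to wild-type enrichment, with inverse-variance-weighted replicate averaging, and the logarithm is base 2.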
row,Variant,polymerase ribozyme fitness (log ratio)
1,GACCAAUCUGCCCUCAGAGGUCGAGAACAUCUUCGGAUGCAGAGGAGGCAGGCUUCGGUGGCGCGAUAGCGGCAACGUCCUCAACCUCCAAUGCAUCCCACCACAUGAUGAUGCCUGAAGAGCCUUGGUUUUUUG [C20G C72G],-4.5
2,GACCAAUCUGCCCUCAGAGGUCGAGAACAUCUUCGGAUGCAGAGGAGGCAGGCUUCGGUGGCGCGAUAGCGCCAACGUCCUCAACCUCCAAUGCAUCCCACCACAUGAUGAUGCCUGAUGAGCCUUGGUUUUUUG [C20G A119U],-4.11
3,GACCAAUCUGCCCUCAGAGGUCGAGAACAUCUUCGGAUGCAGAGGAGGCAGGCUUCGGUGGCGCGAUAGCGCCAACGUCCUCAACCUCGAAUGCAUCACACCACAUGAUGAUGCCUGAACAGCCUUGGUUUUUUG [C20G C89G C98A G120C],-2.55
4,GACCAAUCUGCCCUCAGAGGUCGAGAACAUCUUCGGAUGCAGCGGAGGCAGGAUUCGGUGGCGCGAUAGCGCCAACGUCCUCAACCUCCAAUGCAUCCCACCACAUGAUGAUGCCUGAGGAGCCUUGGUUUUUUG [C20G A43C C53A A119G],-5.03
5,GACCAAUCUGCCCUCAGAGGUCGAGAACAUCUUCGGAUGCAGAGGACGCAGGCUUCGGUGGCGCGAUAGCGCCAACGUCCUCAACCUCCAAUGCAUCCCACCACAUGAUGAUGCCUGAAGAGCCUUGGUUUUUUG [C20G G47C],-5.65
6,GACCAAUCUGCCCUCAGAGGUCGAGAACAUCUUCGGAUGCAGAGGAGGCAGGCUUCGGUGGCGCGAUAGCGCCAUCGUCCUCAACCUCCAAUGCAUCCCACCACAUGAUGAUGCCUGAAGAGCCUUGGUUUUUUG [C20G A75U],-4.41
7,GACCAAUCUGCCCUCAGAGGUCGAGAACAUCUUCGGAUGUAUAGGAGGCAGGCUUAGGUGGCGCGAUAGCGCCAACGUCCUCAACCUCCAAUGCAUCCCACCACAUGAUGAUGCCUGAAGAGCCUUGGUUUUUUG [C20G C40U G42U C56A],-4.45
8,GACCAAUCUGCCCUCAGAGGUCGAGAACAUCUUCGGAUGCAGAGGAGGCAGGCUUCGGUGGCGAGAUAGGGCCAACGUCCUCAACCUCCAAUGCAUCCCACCACAUGAUGAUACCUGAAGAGCCGUGGUUUUGUG [C20G C64A C70G G113A U125G U133G],-5.92
9,GACCAAUCUGCCCUCAGAGGUCGAGAACAUCUUCGGAUGCAGAGGAGGCAGGCUUCGGUGGCGCGAUAGCGCCAAAGUCCUCAACCUCCAAUGCAUCCCACCACAUGAUGAUGCCUGAAGAGCCUUGGUUUUUUG [C20G C76A],-4.94
10,GACCAAUCUGCCCUCAGAGGUCGAGAACAUCUUCGGAUGCAGAGGAGGCAGGCUUCGGUGGCGCGAUAGCGCCAACGUCCUCAACCUCCAAUGCAUCCCACCACAUGAUGAUGCUUGAAGCGCCUUGGUUUUUUG [C20G C115U A121C],-6.48
11,GACCAAUCUGCCCUCAGAGGUCGAGAACAUCUUCGGAUGCAGAGGAGGCAGGCUUCGGUGGCGCGAUAGCGCCAACGUCCUCAACAUCCAAUGCAUCCCACCACAUGAUGAUGCCUGAAGAGCCUUGGUUUUUUG [C20G C86A],-4.53
12,GACCAAUCUGCCCUCAGAGGUCGAGAACAUCUUCGGAUGCAGAGGAGGCAGGCUUGGGUGGCGCGAUAGCGCCAACGUCCUCAACCUCCAAUGCAUCCCACCACAUGAUGAUGCCUGAAGAGCCUUGGUUUUUUG [C20G C56G],-4.45
13,GACCAAUCUGCCCUCAGAGGUCGAGAACAUCUUCGGAUGCAGAGGAGGCAGGCUUCGGUGGCGCGAUAGCGCCAACGUCCUCAACCUCCAAUGCAUCCCACCACAUGAUGAUGCCUGAAGAGUCUAGGUUUUUUG [C20G C123U U126A],-3.94
14,GACCAAUCUGCCCUCAGAGGUCGAGAACAUCUUCGGAUGCAGAGGAGGCAGGCUUGGGUGGCGCGAUAGCGCCAACGUCCUCAACCUCCAAUGCCUCCCACCACAUGAUGAUGCCUUAAGAGCAUUGGUUUUUUG [C20G C56G A95C G117U C124A],-3.93
15,GACCAAUCUGCCCUCAGAGGUCGAGAACAUCUUCGGAUGCAGAGGUGGCAGGCUUCGGUGGCGCGAUAGCGCCAACGUCCUCAACCUCCAAUGCAUCCCACCACAUGAUGAUGCCUGAAAAGCCUUGGUUUUUUG [C20G A46U G120A],-4.96
16,GACCAAUCUGCCCUCAGAGGUCGAGAACAUCUUCGGAUGCAGAGGAGGCAGGUUUCGGUGGCGCGAUAGCGCCAACGUCCUCAACCUCCAAUGCAUCCCACCACAUGAUGAUUCCUGAAGAGCCUUGGUUUUUUG [C20G C53U G113U],-0.634
17,GACCAAUCUGCCCUCAGAGGUCGAGAACAUCUUCGGAUGCAGAGGAGGCAGGCUUCGGUGGCGCGAUAGCGCCAACGUCCUCAACCUCCAAUGCAUCCCACCACAUGAUGAUGCCUGAAGAGCGUUGGUUUUUUG [C20G C124G],-3.06
18,GACCAAUCUGCCCUCAGAGGUCGAGAACAUCUUCGGAUGCAGAGGAGGCAGGCUUCGGUGGCGCGAUAGCGCCAACGUCCUCAACCUCCAAUGCAUCCCACCACAUGAUGAUGCCUGGAGAGCCUUGGUUUUUUG [C20G A118G],-5.96
19,GACCAAUCUGCCCUCAGAGGUCGAGAACAUCUUCGGAUGCAGAGGAGGCAGGGUUCCGUGGCGCGAUAGCGCCAACGUCCUCAACCUCCAGUGCAUCCCACCACAUGAUGAUGCCUGAAGAGCCUUGGUUUUUUG [C20G C53G G57C A91G],-5.64
20,GACCAAUCUGCCCUCAGAGGUCGAGAACAUCUUCGGAUGCAGAGGUGGCAGGCUUCGGUGGUGCGAUAGCGCCAACGUCCUCAACCUCCAAUGCAUCCCACCACAUGAUGAUGUCUGAAGAGCCUUGGUUUUUUG [C20G A46U C62U C114U],-3.55
21,GACCAAUCUGCCCUCAGAGGUCGAGAACAUCUUCGGAUGCAGAGGAGGCAGGCUUCGGUGGCGCGAUAGCGCAAACGUCCUCAACCUCCAAUGCAUCCCACCACAUGAUGAUGCGUGAAGAGCCUUGGUUUUUUG [C20G C73A C115G],-5.35

row,Variant,polymerase ribozyme fitness (log ratio)
1,GACCAAUCUGCCCUCAGAGGUCGAGAACAUCUUAGGAUGCGGAGGAGGCAGGAUUCGGUGGCGCGAUACCGCCAACGUCCUCAACCUCCAAUGCAUCCCACCACAUGAUGAUGCCUGAACAGCCUUGGUUUUUUG [C20G C34A A41G C53A G69C G120C],-6.31
2,GACCAAUCUGCCCUCAGAGGUCGAGAACAUCUUCGGAUGCAGAGGAGGCAGGCUUCGAUGGCGCGAUAGCGCCAACGUCCUCAACCUCGAAUGCAUCCCACCACAUGAUGAUGCCUUAAGAGCCUUGGUUUUUUG [C20G G58A C89G G117U],-4.04
3,GACCAAUCUGCCCUCAGAGGUCGAGAACAUCUUCGGAUGCAGAGGAGGCAGGCUUCGGUGGCGCGAUAGCGCCAACGUCCUCAACCUCCCAUGCAUCUCACCACAUGAUGAUGCCUGAAGAGCAUAGGUUUUUUG [C20G A90C C98U C124A U126A],-4.21
4,GACCAAUCUGCCCUCAGAGGUCGAGAACAUCUUCGGAUGCAGACGAGGCAGGCUUCGGUGGCGCGAUAGCGCUAACGACCUCAACCUCCAAUGCCUCCCACCACAUGAUGAUGCCUGAAGAGCCUUGGUUUUUUG [C20G G44C C73U U78A A95C],-6.9
5,GACCAAUCUGCCCUCAGAGGUCGAGAACAUCUUCGGAUGCAGAGGAGGCAGGCUUCGGUGGCGCGAUAGCGCCAACGUCCUCAAGCUCCAAUGCAUCCCACCACAUGAUGAUGCCUGAAGAGCCUUGGUUUUUUG [C20G C85G],-3.76
6,GACCAAUCUGCCCUCAGAGGUCGAGAACAUCUUCGGAUGCAGAGGAGGCAGGCUUCGGUGGCGAGAUAGCGCCAACGUCCUCAACCUCCAAUGCAUCUCACCACCUGAUGAUGUCAGAAGAGCCUUGGUUUUUUG [C20G C64A C98U A105C C114U U116A],-6.79
7,GACCAAUCUGCCCUCAGAGGUCGAGAACAUCUUCGGAUGCAGAGGAGGCAGGCUUCGGUGGCGCGAUAGCGCCAACGUCCUCAACCUUCAAUGCAUCCCACCACAUGAUGAUGGCUGAAGAGCCUUGGUCUAUUG [C20G C88U C114G U130C U132A],-5.66
8,GACCAAUCUGCCCUCAGAGGUCGAGAACAUUUUCUGAUGCAGAGGAGGCAGGCUUCGGUGGCGCGAUAGCGCCAACGUCCUCAACCUCCAAUGCAUCCCACCACAUGAGGAUGCCUGAAGAGCCUUGGUUUUUUG [C20G C31U G35U U109G],-4.7
9,GACCAAUCUGCCCUCAGAGGUCGAGAACAUCUUCGGAUGCAUAGGAGGCAGGCUUCGGUGGCGCGAUAGCGCCAACGUCCUCAACCUCCAAUGCAUCCCACCACAUGAUGAUCCCUGAAGAGCCUUGGUUUUUUG [C20G G42U G113C],-3.64
10,GACCAAUCUGCCCUCAGAGGUCGAGAACAUCUUCGGAUGCAGAGGAGGCAGUCUUCGGUGGCGCGAUAGCGCCAACGUCCUCAACCUCCAAUGCAUCCCACCACAUGAUGAUGCCUGAAGAGCCUUGGUUUUUUG [C20G G52U],-5.6
11,GACCAAUCUGCCCUCAGAGGUCGAGAACAUCUUCGGAUGCAGAGGUGGCAGGCUUCGGUGGCGCGAUAGCGCCAACGUCCUCAACCUCCAAUGCAUCCCACCACAUGAUGAUGCCUGGAGAGCCUUGGUUUUUUG [C20G A46U A118G],-5.92
12,GACCAAUCUGCCCUCAGAGGUCGAGAACAUCUUUGGAUGCAGAGGAGGCAGGCUUCGGUGGCACGAUAGCGCCAACGUUCUCAACCUCCAAUGCAUCCUACCACAUGAUGCUGCCUGAAGAGCCUUGGUUUUUUG [C20G C34U G63A C79U C99U A111C],-5.53
13,GACCAAUCUGCCCUCAGAGGUCGAGAACAUCUUCGGAUGCAGAAGAGGCAGGCUUCGGUGGCGCGAUAGCGCCAACGUCCUCAACCUCCAAUGCAUCCCACCACAUGAUGAUGCCUGAAGAGCCUUGGUUUUUUG [C20G G44A],-5.14
14,GACCAAUCUGCCCUCAGAGGUCGAGAACAUCUUCGGAUCCAGAGGAGGCAGGCUUCGGUGGCGCGAUAGCGCCAACGUCCUCAACCUCCUAUGUAUCCCACCACAUGAUGAUUCUGGAAGAGCCUUGGUUUUUUG [C20G G39C A90U C94U G113U C115U U116G],-1.36
15,GACCAAUCUGCCCUCAGAGGUCGAGAACAUCUUCGGAUGCAGAGGAGGCAGCCUUCGGUGGCGCGAUAGCGCCAACGUCCUCAACCUCCAAUGCGUCCCACAACAUGAUGAUGCUUGAAGAGCCUUGGUUUUUUG [C20G G52C A95G C102A C115U],-6.79
16,GACCAAUCUGCCCUCAGAGGUCGAGAACAUCUUCGGAUGCAGAGGAGGCAGGCUUCGGUGGCGCGAUAGCGCCAACGUCCUCAACCUCCAAUGCAUCCCUCCACAUGAUGAGGCCUGAAGAGCCUUGGUUUUUUG [C20G A100U U112G],-5.11
17,GACCAAUCUGCCCUCAGAGGUCGAGAACAUCUUCGGAUGCAAAGAAGGCAGGCGUCGGUGGCGCGAUAGCGCCAACGUUCUCAACCUCCAAUGCAUCCCACCACAUGAUGAUGCCUGAAGAGUCUUGGUUUUUUG [C20G G42A G45A U54G C79U C123U],-6.38
18,GACCAAUCUGCCCUCAGAGGUCGACAACAUCUUCGGAUGCAGAGGAGGCAGGCUUCGGUGGCGCGAUAGCGCCAACGUCCUCAACCUCCAAUGCAUCCCACCACAUGAUGAUGCCUGAAGAGCCUUGGUUUUUUG [C20G G25C],-6.42
19,GACCAAUCUGCCCUCAGAGGUCGAGAACAUCUUCGGAUGCAGAGGAGGCAGGCUUCGGUGGCGCGAUAGCGCCAACGUCCUCAACCUCCACUGCAUCCCACCACAUGAUGAUGUCUGAAGAGCCUUGGUUUUUUG [C20G A91C C114U],-2.15
20,GACCAAUCUGCCCUCAGAGGUCGAGAACAUCUUCGGAUGCAGAGGAGGCAGGCUUCGGUGGAGCGAUAGCGCCAACGUCCUCAACCUCCAAUGCAUCACACCACAUGAUCAUGACUGAAGAGCCUUGGUUUUUUG [C20G C62A C98A G110C C114A],-8.01
21,GACCAAUCUGCCCUCAGAGGUCGAGAACAUCUUCGGAUGCAGAGGAGGGAGGCUUCGGUGGCGCGAUAGCGCCAACGUCCUCAACCUCCAAUGCAUCCCACCACAUGAUGAUGCCUGAAGAGCCUUGGUUUUUUG [C20G C49G],-5.11
